What was measured:
[1] = Photobleaching test of dye-labeled lispro in expired mouse ear (OR-PAM); type: physicochemical; settings: 400 μM in Humalog formulation in expired mouse ear; 21 imaging sessions over 3 hours; 780 nm
Experimental: Before performing live animal experiments, we injected the dye-labeled lispro formulation in the ear of an expired mouse to study the progression of photoacoustic signals to assess photobleaching.
[picture] Figure S1: Photobleaching test of Cy7.5 dye-labeled lispro (400 μM) in Humalog formulation injected in a dead mouse ear. Over the course of 3 hours, 21 imaging sessions were performed and no decrease of photoacoustic signals were found. Scale bar = 500 μm.

[2] = OR-PAM quantification and compartmental kinetic modelling of injection-site absorption in mouse ear; type: in vivo; settings: sulfo-cy7.5 dye without lispro, n = 3, result in words
Experimental: We used 34 gauge needles (207434, Hamilton) with microliter syringes to inject insulin volumes from 0.06 μL to 0.10 μL in the mouse ear. To perform the injection, the syringes were fitted onto a syringe dispenser (PB600, Hamilton), which enabled rapid and controlled injection. The needle was inserted in the mouse ear at an oblique angle (≤45°) and then the desired volume of the dye-labeled insulin lispro formulation was injected using the syringe dispenser. To perform 0.06 μL injections, a 1 μL syringe (80100, Hamilton) was used through which a minimum of 0.02 μL of liquid could be dispensed. To inject 0.1 μL volume, a 5 μL (7634-01, Hamilton) syringe was used. To perform 0.06 μL injection, the 1 μL syringe was fitted with a glass coupler (55752-01, Hamilton) and a luer adaptor (55753-01, Hamilton) to connect to the 34-gauge needle. The 5 μL syringe could be directly connected to the needle.
Mouse experiments were approved as per the IACUC regulations at Caltech. Hsd:Athymic Nude-Fox1^nu mice aged 6–10 weeks (Envigo) were used in all the photoacoustic experiments. The mouse body temperature was maintained at 37 °C during imaging. […]
Since the time required for taking each image is around 220 s, we consider the mid-point of time at which the imaging was started and ended as the imaging time-point. […] All the p values were calculated using unpaired two-sample t-tests. […]

Row | Substance | photostability (photoacoustic signal) [1] | injection-site absorption of dye alone, Lyumjev versus Humalog excipient formulation [2]
1 | sulfo-cy7.5 insulin lispro: insulin lispro acylated at the B-chain lysine B28 epsilon amino group with sulfo-cyanine7.5 NHS ester | no decrease in photoacoustic signals after 21 imaging sessions | 
2 | sulfo-cyanine7.5 [sulfo-cy7.5 dye] |  | absorbed at a faster rate in the Lyumjev formulation
